# Reference: the supplement of paper PMC10567573
# B1: PHTF1 (parent)
# chain: RVKLISNKGTETDNDPSCVHPIIK
# Variants of: B1
# Assay: protein stability index of a GFP-peptide fusion (GPS, HEK-293T) (PSI 1-6); higher = more stable
# Conditions: c terminus: a fixed tail appended
# 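Note: lentivirally expressed fusions sorted by FACS into six bins by GFP to DsRed ratio, PSI derived from sequencing read proportions per bin multiplied by bin number.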
row,Variant,protein stability index
1,RVKLISNKGTETDNDPSCVHPMIK [I22M],3.51
2,RVKLISNKGTETDNDPSCVHPWIK [I22W],3.68
3,RVKLISNKGTETDNDPSCVHPCIK [I22C],3.84
4,RVKLISNKGTETDNDPSCVHPYIK [I22Y],4.23
5,RVKLISNKGTETDNDPSCVHPRIK [I22R],4.53
6,RVKLISNKGTETDNDPSCVHPQIK [I22Q],4.22
7,RVKLASNKGTETDNDPSCVHPIIK [I5A],4.11
8,RVKLRSNKGTETDNDPSCVHPIIK [I5R],3.86
9,RVKLHSNKGTETDNDPSCVHPIIK [I5H],4.3
10,RVKLMSNKGTETDNDPSCVHPIIK [I5M],4.3
11,RVKLISNKGTEMDNDPSCVHPIIK [T12M],3.44
12,RVKLISNKGTENDNDPSCVHPIIK [T12N],4.26
13,RVKLISNKGTEVDNDPSCVHPIIK [T12V],4.01
14,RVKLISNKGTEADNDPSCVHPIIK [T12A],4.11
15,RVKLISNKGTEWDNDPSCVHPIIK [T12W],3.11
16,RVKLISNKGTERDNDPSCVHPIIK [T12R],3.95
17,RVKLISNKGTEYDNDPSCVHPIIK [T12Y],3.25
18,RVKLISNKHTETDNDPSCVHPIIK [G9H],4.03
19,RVKLISNKRTETDNDPSCVHPIIK [G9R],3.54
20,RVKLISNKITETDNDPSCVHPIIK [G9I],3.25
21,RVKLISNKETETDNDPSCVHPIIK [G9E],4.23
22,RVKLISNKDTETDNDPSCVHPIIK [G9D],4.36
23,RVKLISNKLTETDNDPSCVHPIIK [G9L],3.64
24,RVKLISNKMTETDNDPSCVHPIIK [G9M],3.75

row,Variant,protein stability index
1,RVKLISNKSTETDNDPSCVHPIIK [G9S],4.21
2,RVKLISNKNTETDNDPSCVHPIIK [G9N],4.17
3,RVKLISNKQTETDNDPSCVHPIIK [G9Q],4.31
4,RVKLISNKTTETDNDPSCVHPIIK [G9T],4.27
5,RVKLISNKGTETDNDPSCVKPIIK [H20K],4.38
6,RVKLISNKGTETDNDPSCVEPIIK [H20E],4.76
7,RVKLISNKGTETDNDPSCVYPIIK [H20Y],3.91
8,RVKLISNKGTETDNDPSCVRPIIK [H20R],4.26
9,RVKLISNKGTETDNDPSCVTPIIK [H20T],4.49
10,RVKLISNKGTETDNDPSCVMPIIK [H20M],4.22
11,RVKLISNKGTETDNDPSCVSPIIK [H20S],4.11
12,RVKLISNKGTETDNDPSCVQPIIK [H20Q],4.61
13,RVKLISNKGTETDNDPSCVVPIIK [H20V],3.86
14,RVKLISNKGTETDNDPSCVHLIIK [P21L],2.3
15,RVKLISNKGTETDNDPSCVHSIIK [P21S],3.89
16,RVKLISNKGTETDNDPSCVHVIIK [P21V],3.46
17,RVKLISNKGTETDNDPSCVHFIIK [P21F],2.73
18,RVKLISNKGTETDNDPSCVHYIIK [P21Y],3.4
19,RVKLISNKGTETDNDPSCVHEIIK [P21E],4.03
20,RVKLISNKGTETDNDPSCVHPINK [I23N],4.59
21,RVKLISNKGTETDNDPSCVHPICK [I23C],4.67
22,RVKLISNKGTETDNDPSCVHPIEK [I23E],4.82
23,RVKLISNKGTETDNDPSCVHPIVK [I23V],3.85
24,RVKLISNKGTETDNDPSCVHPIFK [I23F],4.02

row,Variant,protein stability index
1,RVKLISNKGTETDNDPSCVHPILK [I23L],4.47
2,RVKLISNKGTETDNDPSCVHPIDK [I23D],4.82
3,RVKLISNKGTETDNDPSCVHPIWK [I23W],3.52
4,RVKLISNKGTETDNDPSCVHPIAK [I23A],4.59
5,RVKLISNKGTETDNDPSCVHPIGK [I23G],4.49
6,RAKLISNKGTETDNDPSCVHPIIK [V2A],4.41
7,RNKLISNKGTETDNDPSCVHPIIK [V2N],4.5
8,RWKLISNKGTETDNDPSCVHPIIK [V2W],3.61
9,RPKLISNKGTETDNDPSCVHPIIK [V2P],4.68
10,REKLISNKGTETDNDPSCVHPIIK [V2E],4.78
11,RTKLISNKGTETDNDPSCVHPIIK [V2T],4.35
12,RRKLISNKGTETDNDPSCVHPIIK [V2R],4.45
13,RVKLISTKGTETDNDPSCVHPIIK [N7T],4
14,RVKLISAKGTETDNDPSCVHPIIK [N7A],4.02
15,RVKLISWKGTETDNDPSCVHPIIK [N7W],3.1
16,RVKLISMKGTETDNDPSCVHPIIK [N7M],3.36
17,RVKLISIKGTETDNDPSCVHPIIK [N7I],3.6
18,RVKLISCKGTETDNDPSCVHPIIK [N7C],3.64
19,RVKLISQKGTETDNDPSCVHPIIK [N7Q],4.09
20,RVKLISKKGTETDNDPSCVHPIIK [N7K],4.31
21,RVKLISYKGTETDNDPSCVHPIIK [N7Y],3.32
22,RVKLISNKGTETDNDPSCVHPIIL [K24L],2.67
23,RVKLISNKGTETDNDPSCVHPIIA [K24A],3.54
24,RVKLISNKGTETDNDPSCVHPIII [K24I],2.49

row,Variant,protein stability index
1,RVKLISNKGTETDNDPSCVHPIIV [K24V],3.17
2,RVKLISNKGTETDNDPSCVHPIIQ [K24Q],3.74
3,RVKLISNKGTETDNDPSCVHPIIY [K24Y],2.79
4,RVKLISNKGTETDNDPSCVHPIIC [K24C],3.36
5,RVKLISNKGTETDNDPSCVHPIIR [K24R],4.09
6,RVKLISNKGTETDNDPSCVHPIIW [K24W],2.73
7,RVKLISNKGTFTDNDPSCVHPIIK [E11F],2.71
8,RVKLISNKGTHTDNDPSCVHPIIK [E11H],3.41
9,RVKLISNKGTTTDNDPSCVHPIIK [E11T],3.82
10,RVKLISNKGTSTDNDPSCVHPIIK [E11S],3.55
11,RVKLISNKGTVTDNDPSCVHPIIK [E11V],3.16
12,RVKLISNKGTQTDNDPSCVHPIIK [E11Q],3.57
13,RVKLISNKGTDTDNDPSCVHPIIK [E11D],4.05
14,RVKLISNKGTETDNDPGCVHPIIK [S17G],4.21
15,RVKLISNKGTETDNDPVCVHPIIK [S17V],4.16
16,RVKLISNKGTETDNDPTCVHPIIK [S17T],4.27
17,RVKLISNKGTETDNDPNCVHPIIK [S17N],4.01
18,RVKLISNKGTETDNDPLCVHPIIK [S17L],3.93
19,RVKLISNKGTETDNDPPCVHPIIK [S17P],4.41
20,RVKLISNKGTETDNDPMCVHPIIK [S17M],3.59
21,RVKLISNKGTETDNDPWCVHPIIK [S17W],2.96
22,RVKLISNKGTETDNDPKCVHPIIK [S17K],4.22
